# Experimental data taken from publication PMC10786919, “Design-rules for stapled peptides with in vivo activity and their application to Mdm2/X antagonists” (Nature Communications, 2024).
# Positions of bridges follow the written chain, without caps; N, C: chain ends. Non-standard residues stand in square brackets, D forms with d. Primed or numbered codes have the meaning given here. Trp(6-Cl) = N[C@@H](Cc1c[nH]c2cc(Cl)ccc12)C(=O)O; Lys(N3) = [N-]=[N+]=NCCCC[C@H](N)C(=O)O; R8 = C=CCCCCCC[C@@](C)(N)C(=O)O; S5 = C=CCCC[C@](C)(N)C(=O)O; Cba′ = not defined here; Aib = CC(C)(N)C(=O)O; βAla = NCCC(=O)O
# B1: AZIDE-ATSP-7041 (Q9hR) (peptide)
# chain: KXLTFXEYWAXXXSAA
# modifications: homo-Arg (hR) at 9; N-terminal acetyl; Lys(N3) and beta-Ala before residue 1; R8 at 4 and S5 at 11 (olefin staple); Cba at 10; C-terminal amide
# B2: AZIDE-ATSP-7041 (A14hR) (peptide)
# chain: KXLTFXEYWAQXXSAX
# modifications: homo-Arg (hR) at 14; N-terminal acetyl; Lys(N3) and beta-Ala before residue 1; R8 at 4 and S5 at 11 (olefin staple); Cba at 10; C-terminal amide
# B3: AZIDE-ATSP-7041 (E5hR) (peptide)
# chain: KXLTFXXYWAQXXSAA
# modifications: homo-Arg (hR) at 5; N-terminal acetyl; Lys(N3) and beta-Ala before residue 1; R8 at 4 and S5 at 11 (olefin staple); Cba at 10; C-terminal amide
# B4: AZIDE-ATSP-7041 (S12hR) (peptide)
# chain: KXLTFXEYWAQXXXAA
# modifications: homo-Arg (hR) at 12; N-terminal acetyl; Lys(N3) and beta-Ala before residue 1; R8 at 4 and S5 at 11 (olefin staple); Cba at 10; C-terminal amide
# B5: AZIDE-ATSP-7041 (L1hR) (peptide)
# chain: KXXTFXEYWAQXXSAA
# modifications: homo-Arg (hR) at 1; N-terminal acetyl; Lys(N3) and beta-Ala before residue 1; R8 at 4 and S5 at 11 (olefin staple); Cba at 10; C-terminal amide
# B6: AZIDE-ATSP-7041 (A13hR) (peptide)
# chain: KXLTFXEYWAQXXSXA
# modifications: homo-Arg (hR) at 13; N-terminal acetyl; Lys(N3) and beta-Ala before residue 1; R8 at 4 and S5 at 11 (olefin staple); Cba at 10; C-terminal amide
# B7: AZIDE-ATSP-7041 (T2hR) (peptide)
# chain: KXLXFXEYWAQXXSAA
# modifications: homo-Arg (hR) at 2; N-terminal acetyl; Lys(N3) and beta-Ala before residue 1; R8 at 4 and S5 at 11 (olefin staple); Cba at 10; C-terminal amide
# Target: T1, human Mdm2 1-125 (human)
# T1 construct: Mdm2, human, residues 1-125; the stretch after the TEV site ENLYFQG of the fusion protein; source: E. coli BL21 (DE3) Rosetta T1R, purified (Ni-NTA, gel filtration)
# T1 sequence (chain, as listed by the source): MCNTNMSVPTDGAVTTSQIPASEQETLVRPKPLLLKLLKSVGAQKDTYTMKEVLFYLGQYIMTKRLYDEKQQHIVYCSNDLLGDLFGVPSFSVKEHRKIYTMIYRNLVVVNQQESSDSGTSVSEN
# Assay: fluorescence polarisation; competitive fluorescence anisotropy: unlabelled peptide titrated against 250 nM Mdm2 (1-125) with 50 nM FAM-labelled 12/1 peptide (FAM-…-NH2); PBS pH 7.4, 0.001% Tween-20; apparent Kd, geometric means
# Settings: both partners purified
row,Binder,Kd [nM]
1,Ac-[Lys(N3)][βAla]LAF[R8]EYWAQ[Cba′][S5]SAA-NH2 (staple 6-13; reading uncertain) [AZIDE-ATSP-7041 (T2A)],80.5
2,Ac-[Lys(N3)][βAla]LTF[R8]EYWAQ[Cba′][S5]KAA-NH2 (staple 6-13; reading uncertain) [AZIDE-ATSP-7041 (S12K)],39.7
3,Ac-[Lys(N3)][βAla]LTA[R8]EYWAQ[Cba′][S5]SAA-NH2 (staple 6-13; reading uncertain) [AZIDE-ATSP-7041 (F3A)],13200
4,Ac-[Lys(N3)][βAla]LKF[R8]EYWAQ[Cba′][S5]SAA-NH2 (staple 6-13; reading uncertain) [AZIDE-ATSP-7041 (T2K)],5.4
5,Ac-[Lys(N3)][βAla]LTF[R8]EYWKQ[Cba′][S5]SAA-NH2 (staple 6-13; reading uncertain) [AZIDE-ATSP-7041 (A8K)],11.1
6,Ac-[Lys(N3)][βAla]LTF[R8]KYWAQ[Cba′][S5]SAA-NH2 (staple 6-13; reading uncertain) [AZIDE-ATSP-7041 (E5K)],115
7,Ac-[Lys(N3)][βAla]ATF[R8]EYWAQ[Cba′][S5]SAA-NH2 (staple 6-13; reading uncertain) [AZIDE-ATSP-7041 (L1A)],10.7
8,Ac-[Lys(N3)][βAla]KTF[R8]EYWAQ[Cba′][S5]SAA-NH2 (staple 6-13; reading uncertain) [AZIDE-ATSP-7041 (L1K)],3.8
9,Ac-[Lys(N3)][βAla]LTF[R8]EYWAK[Cba′][S5]SAA-NH2 (staple 6-13; reading uncertain) [AZIDE-ATSP-7041 (Q9K)],8.2

# Target: T1, human Mdm2 1-125
# Assay: as above
# Settings: both partners purified
# Remark: another data set of the same source
row,Binder,Kd [nM]
1,"Ac-[Lys(N3)][βAla]VTF[R8]VYWVQ[Cba′][S5]SAA-NH2 (staple 6-13; reading uncertain) [AZIDE-ATSP-7041 (L1V, E5V, A8V)]",122
2,"Ac-[Lys(N3)][βAla][dL]TF[R8]AY[Trp(6-Cl)]AA[Cba′][S5]S[dA]A-NH2 (staple 6-13; reading uncertain) [AZIDE-ATSP-7041 (L1 TO D-LEU, E5A, Q9A, W7 TO 6-CLTRP, A13 TO D-ALA)]",16.9

# Target: T1, human Mdm2 1-125
# Assay: as above
# Settings: both partners purified
# Remark: another data set of the same source
row,Binder,Kd [nM]
1,B1,28.5
2,Ac-[Lys(N3)][βAla]LTF[R8]EYWRQ[Cba′][S5]SAA-NH2 (staple 6-13; reading uncertain) [AZIDE-ATSP-7041 (A8R)],69.4
3,Ac-[Lys(N3)][βAla]RTF[R8]EYWAQ[Cba′][S5]SAA-NH2 (staple 6-13; reading uncertain) [AZIDE-ATSP-7041 (L1R)],62.9
4,B2,8.6
5,Ac-[Lys(N3)][βAla]LTF[R8]EYWAQ[Cba′][S5]RAA-NH2 (staple 6-13; reading uncertain) [AZIDE-ATSP-7041 (S12R)],78.7
6,B3,35.5
7,Ac-[Lys(N3)][βAla]LTF[R8]EYWAR[Cba′][S5]SAA-NH2 (staple 6-13; reading uncertain) [AZIDE-ATSP-7041 (Q9R)],45.9
8,B4,5
9,B5,8.6
10,Ac-[Lys(N3)][βAla]LRF[R8]EYWAQ[Cba′][S5]SAA-NH2 (staple 6-13; reading uncertain) [AZIDE-ATSP-7041 (T2R)],30.6
11,B6,42.5
12,Ac-[Lys(N3)][βAla]LTF[R8]RYWAQ[Cba′][S5]SAA-NH2 (staple 6-13; reading uncertain) [AZIDE-ATSP-7041 (E5R)],33
13,B7,2.8

# Target: T1, human Mdm2 1-125
# Assay: as above
# Settings: both partners purified
# Remark: another data set of the same source
row,Binder,Kd [nM]
1,Ac-[Lys(N3)][βAla]LTF[R8]EYEAQ[Cba′][S5]SAA-NH2 (staple 6-13; reading uncertain) [AZIDE-ATSP-7041 (W7E)],> 101000
2,Ac-[Lys(N3)][βAla]LTF[R8]EYWAQE[S5]SAA-NH2 (staple 6-13) [AZIDE-ATSP-7041 (CBA10E)],312
3,Ac-[Lys(N3)][βAla]LTF[R8]HYWAQ[Cba′][S5]SAA-NH2 (staple 6-13; reading uncertain) [AZIDE-ATSP-7041 (E5H)],21.1
4,Ac-[Lys(N3)][βAla]LTF[R8]EYWAQ[Cba′][S5]S[Aib]A-NH2 (staple 6-13; reading uncertain) [AZIDE-ATSP-7041 (A13 TO AIB)],15.2
5,Ac-[Lys(N3)][βAla]LTF[R8]EYWAQ[Cba′][S5]HAA-NH2 (staple 6-13; reading uncertain) [AZIDE-ATSP-7041 (S12H)],4.5
6,Ac-[Lys(N3)][βAla]HTF[R8]EYWAQ[Cba′][S5]SAA-NH2 (staple 6-13; reading uncertain) [AZIDE-ATSP-7041 (L1H)],0.7
7,Ac-[Lys(N3)][βAla]LTF[R8]EEWAQ[Cba′][S5]SAA-NH2 (staple 6-13; reading uncertain) [AZIDE-ATSP-7041 (Y6E)],5.1
8,Ac-[Lys(N3)][βAla]LTE[R8]EYWAQ[Cba′][S5]SAA-NH2 (staple 6-13; reading uncertain) [AZIDE-ATSP-7041 (F3E)],11200
9,Ac-[Lys(N3)][βAla]LEF[R8]EYWAQ[Cba′][S5]SAA-NH2 (staple 6-13; reading uncertain) [AZIDE-ATSP-7041 (T2E)],42.4
10,Ac-[Lys(N3)][βAla]LTF[R8]EYWAH[Cba′][S5]SAA-NH2 (staple 6-13; reading uncertain) [AZIDE-ATSP-7041 (Q9H)],9.6
11,Ac-[Lys(N3)][βAla]LTF[R8]EYWAE[Cba′][S5]SAA-NH2 (staple 6-13; reading uncertain) [AZIDE-ATSP-7041 (Q9E)],34.6
12,Ac-[Lys(N3)][βAla]LHF[R8]EYWAQ[Cba′][S5]SAA-NH2 (staple 6-13; reading uncertain) [AZIDE-ATSP-7041 (T2H)],64.2
13,Ac-[Lys(N3)][βAla]LTF[R8]EYWEQ[Cba′][S5]SAA-NH2 (staple 6-13; reading uncertain) [AZIDE-ATSP-7041 (A8E)],3.2
